Sequences and labels used below:
B1: Protein BRASSINAZOLE-RESISTANT 1 (Arabidopsis thaliana (Mouse-ear cress)), Q8S307 (parent)
chain: MTSDGATSTSAAAAAAAAAAARRKPSWRERENNRRRERRRRAVAAKIYTGLRAQGDYNLPKHCDNNEVLKALCVEAGWVVEEDGTTYRKGCKPLPGEIAGTSSRVTPYSSQNQSPLSSAFQSPIPSYQVSPSSSSFPSPSRGEPNNNMSSTFFPFLRNGGIPSSLPSLRISNSCPVTPPVSSPTSKNPKPLPNWESIAKQSMAIAKQSMASFNYPFYAVSAPASPTHRHQFHTPATIPECDESDSSTVDSGHWISFQKFAQQQPFSASMVPTSPTFNLVKPAPQQMSPNTAAFQEIGQSSEFKFENSQVKPWEGERIHDVGMEDLELTLGNGKARG
partner: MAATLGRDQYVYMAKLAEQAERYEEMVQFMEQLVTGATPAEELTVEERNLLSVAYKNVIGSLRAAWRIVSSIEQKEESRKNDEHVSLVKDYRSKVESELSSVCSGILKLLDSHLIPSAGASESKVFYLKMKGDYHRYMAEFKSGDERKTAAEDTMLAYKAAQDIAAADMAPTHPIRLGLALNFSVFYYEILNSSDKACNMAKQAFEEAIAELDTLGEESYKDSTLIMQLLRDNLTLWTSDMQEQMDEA

The variants in the test derive from B1. As to conditions: with 14336_arath GRF6, P48349.
As for MTSDGATSTSAAAAAAAAAAARRKPSWRERENNRRRERRRRAVAAKIYTGLRAQGDYNLPKHCDNNEVLKALCVEAGWVVEEDGTTYRKGCKPLPGEIAGTSSRVTPYSSQNQSPLSSAFQSPIPSYQVSPSSSSFPSPSRGEPNNNMSSTFFPFLRNGGIPSSLPSLRISNACPVTPPVSSPTSKNPKPLPNWESIAKQSMAIAKQSMASFNYPFYAVSAPASPTHRHQFHTPATIPECDESDSSTVDSGHWISFQKFAQQQPFSASMVPTSPTFNLVKPAPQQMSPNTAAFQEIGQSSEFKFENSQVKPWEGERIHDVGMEDLELTLGNGKARG [S173A], the “effect of a mutation on the interaction” value is listed as “decreasing interaction”.
